Results: patent publication US20150376238A1 (University of Washington, published 2015)
Residue numbers refer to the chain shown, from its start. Names and notes keep the numbering of the source.

Target: H3 subtype hemagglutinin (strain not stated)

B1: Variant H3 24-3a (I2T, V29E) (designed binder)
chain: GTGMVAISMDTDKISNSFEDCKYFLIVVESAGWTNTIFNDESGKKEIVKMNVDAIICKNISEENYKKFSKKIEIYHAEGDDVDKNISLFIEGELSKISNP
  Kd: 7.92 nM

B2: Variant H3 24-2 (V27M, F38S, K49E) (designed binder)
chain: B1 chain with T2I, V27M, E29V, F38S, K49E
  Kd: 8.97 nM

B3: Variant H3 24-8 (V27M, K49E) (designed binder)
chain: GTGMVAISMDTDKISNSFEDCKYFLIMVVSAGWTNTIFNDESGKKEIVEMNVDAIICKNISEENYKKFSKKIEIYHAEGDDVDKNISLFIEGELSKISNPLE
  Kd: 14.8 nM

B4: Variant H3 24-3b (V28M) (designed binder)
chain: B3 chain with M27V, V28M, E49K
  Kd: 12.7 nM
